Where a chain is given by its changes, count along the chain named.

Sequences and labels used below:
B1: NRC3_wobSeed111_DR4_G27T_o1 (dsDNA)
DNA 1: GCCGAACTAGGTCAGAACAGGACAGTTAAGGATGATGCGATTGACAGCGTAGAATGAAGG
DNA 2: CCTTCATTCTACGCTGTCAATCGCATCATCCTTAACTGTCCTGTTCTGACCTAGTTCGGC
B2: NRC3_wobSeed111_DR4_G21T_o1 (dsDNA)
DNA 1: B1 DNA 1 with G21T, T27G
DNA 2: B1 DNA 2 with A34C, C40A
B3: NRC3_wobSeed136_DR5_A14C_o1 (dsDNA)
DNA 1: GCTAGCCTAGGTCCTTCAGGGGCCAGTATAGAAAGCGCGATTGACAGCGTAGAATGAAGG
DNA 2: CCTTCATTCTACGCTGTCAATCGCGCTTTCTATACTGGCCCCTGAAGGACCTAGGCTAGC
B4: NRC3_wobSeed98_DR4_G11C_o1 (dsDNA)
DNA 1: GCACTAGTTGCTCAGCTGAGGTCACACACAATTCGGGCGATTGACAGCGTAGAATGAAGG
DNA 2: CCTTCATTCTACGCTGTCAATCGCCCGAATTGTGTGTGACCTCAGCTGAGCAACTAGTGC
B5: NRC3_wobSeed30_DR1_G17A_o1 (dsDNA)
DNA 1: GCACTAGCAGGCCAAGAGTCACTCAAGATTAGTCCGGCGATTGACAGCGTAGAATGAAGG
DNA 2: CCTTCATTCTACGCTGTCAATCGCCGGACTAATCTTGAGTGACTCTTGGCCTGCTAGTGC
B6: NRC3_wobSeed114_DR4_T12A_o1 (dsDNA)
DNA 1: GCAATACAGGGACATCGTAGGCCAGAGTACGCACAGGCGATTGACAGCGTAGAATGAAGG
DNA 2: CCTTCATTCTACGCTGTCAATCGCCTGTGCGTACTCTGGCCTACGATGTCCCTGTATTGC
B7: NRC3_wobSeed4_DR0_C13G_o1 (dsDNA)
DNA 1: GCCCTACTGGGCGAAGGTCATTGATCAGTCAAAGCAGCGATTGACAGCGTAGAATGAAGG
DNA 2: CCTTCATTCTACGCTGTCAATCGCTGCTTTGACTGATCAATGACCTTCGCCCAGTAGGGC
B8: NRC3_wobSeed124_DR5_T5G_o1 (dsDNA)
DNA 1: GCCCGACTGGGCCATTCAGAGGTCATTGATCATATGGCGATTGACAGCGTAGAATGAAGG
DNA 2: CCTTCATTCTACGCTGTCAATCGCCATATGATCAATGACCTCTGAATGGCCCAGTCGGGC
B9: NRC3_wobSeed124_DR5_T23A_o1 (dsDNA)
DNA 1: B8 DNA 1 with G5T, T23A
DNA 2: B8 DNA 2 with A38T, C56A
B10: NRC3_wobSeed90_DR3_A8C_o1 (dsDNA)
DNA 1: GCCATACCGGGTCAGCTAGGCCAGAGTAGGGACGGCGCGATTGACAGCGTAGAATGAAGG
DNA 2: CCTTCATTCTACGCTGTCAATCGCGCCGTCCCTACTCTGGCCTAGCTGACCCGGTATGGC
B11: NRC3_wobSeed10_DR0_A7G_o1 (dsDNA)
DNA 1: GCATCGGAAGGTCGAGGTGAGTATAGAGAAAGGGAAGCGATTGACAGCGTAGAATGAAGG
DNA 2: CCTTCATTCTACGCTGTCAATCGCTTCCCTTTCTCTATACTCACCTCGACCTTCCGATGC
B12: NRC3_wobSeed69_DR2_A7C_o1 (dsDNA)
DNA 1: GCAGTCCAAGTTCACTAGGTAACGTAAGATTCAGCTGCGATTGACAGCGTAGAATGAAGG
DNA 2: CCTTCATTCTACGCTGTCAATCGCAGCTGAATCTTACGTTACCTAGTGAACTTGGACTGC
B13: NRC3_wobSeed69_DR2_A8T_o1 (dsDNA)
DNA 1: B12 DNA 1 with C7A, A8T
DNA 2: B12 DNA 2 with T53A, G54T
B14: NRC3_wobSeed106_DR4_G25C_o1 (dsDNA)
DNA 1: GCCTCGAAAGGTCGGTTGAGGTGACTATACGGATAAGCGATTGACAGCGTAGAATGAAGG
DNA 2: CCTTCATTCTACGCTGTCAATCGCTTATCCGTATAGTCACCTCAACCGACCTTTCGAGGC
B15: NRC3_wobSeed100_DR4_C23A_o1 (dsDNA)
DNA 1: GCCCTACTGGGCCACGAAAGGTAATTGATTCAGTGAGCGATTGACAGCGTAGAATGAAGG
DNA 2: CCTTCATTCTACGCTGTCAATCGCTCACTGAATCAATTACCTTTCGTGGCCCAGTAGGGC
B16: NRC3_wobSeed28_DR1_A21C_o1 (dsDNA)
DNA 1: GCCCTACTGGGCCAAAGGTCCTTGATTCCAATGCTCGCGATTGACAGCGTAGAATGAAGG
DNA 2: CCTTCATTCTACGCTGTCAATCGCGAGCATTGGAATCAAGGACCTTTGGCCCAGTAGGGC
B17: NRC3_wobSeed41_DR1_G11C_o1 (dsDNA)
DNA 1: GCATATGTAGCTTAAGGGTCATTCAGGTTGGTTCGCGCGATTGACAGCGTAGAATGAAGG
DNA 2: CCTTCATTCTACGCTGTCAATCGCGCGAACCAACCTGAATGACCCTTAAGCTACATATGC
B18: NRC3_wobSeed89_DR3_T13A_o1 (dsDNA)
DNA 1: GCCTATGTAGGTAAAGGGGGTCATTCAGTTTGAAAGGCGATTGACAGCGTAGAATGAAGG
DNA 2: CCTTCATTCTACGCTGTCAATCGCCTTTCAAACTGAATGACCCCCTTTACCTACATAGGC
B19: NRC3_wobSeed65_DR2_A5T_o1 (dsDNA)
DNA 1: GCATTTGTAGGTTATCGGGTCATTCAGTTTGCGCATGCGATTGACAGCGTAGAATGAAGG
DNA 2: CCTTCATTCTACGCTGTCAATCGCATGCGCAAACTGAATGACCCGATAACCTACAAATGC
B20: NRC3_wobSeed86_DR3_A23G_o1 (dsDNA)
DNA 1: GCGCTGCTAGGTCAGGTTGGTCGGCTAACGGGTACGGCGATTGACAGCGTAGAATGAAGG
DNA 2: CCTTCATTCTACGCTGTCAATCGCCGTACCCGTTAGCCGACCAACCTGACCTAGCAGCGC
B21: NRC3_wobSeed34_DR1_A9T_o1 (dsDNA)
DNA 1: GCATCGAATGGTCGAAGGTGAGTATACCCACCCGAAGCGATTGACAGCGTAGAATGAAGG
DNA 2: CCTTCATTCTACGCTGTCAATCGCTTCGGGTGGGTATACTCACCTTCGACCATTCGATGC
B22: NRC3_wobSeed46_DR1_T26A_o1 (dsDNA)
DNA 1: GCTTACCAAGGTGAAAGGTCGTTGAAGCACGCCTTGGCGATTGACAGCGTAGAATGAAGG
DNA 2: CCTTCATTCTACGCTGTCAATCGCCAAGGCGTGCTTCAACGACCTTTCACCTTGGTAAGC
B23: NRC3_wobSeed46_DR1_T26G_o1 (dsDNA)
DNA 1: B22 DNA 1 with A26G
DNA 2: B22 DNA 2 with T35C

RARb:RXRa, sequence (P10826 whole entry, chain 1 of 2): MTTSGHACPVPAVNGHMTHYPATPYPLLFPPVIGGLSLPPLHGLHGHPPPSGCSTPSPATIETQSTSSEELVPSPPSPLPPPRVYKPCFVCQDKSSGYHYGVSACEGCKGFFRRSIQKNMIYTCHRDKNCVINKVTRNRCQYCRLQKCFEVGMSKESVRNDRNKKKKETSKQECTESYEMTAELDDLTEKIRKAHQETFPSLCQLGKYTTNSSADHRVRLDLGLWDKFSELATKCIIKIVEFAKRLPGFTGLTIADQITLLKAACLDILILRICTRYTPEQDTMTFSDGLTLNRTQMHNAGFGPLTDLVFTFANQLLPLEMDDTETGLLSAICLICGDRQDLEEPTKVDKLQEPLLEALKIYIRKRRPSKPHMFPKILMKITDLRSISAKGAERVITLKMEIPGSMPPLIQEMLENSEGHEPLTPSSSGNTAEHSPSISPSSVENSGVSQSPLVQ
RARb:RXRa, sequence (P19793 whole entry, chain 2 of 2): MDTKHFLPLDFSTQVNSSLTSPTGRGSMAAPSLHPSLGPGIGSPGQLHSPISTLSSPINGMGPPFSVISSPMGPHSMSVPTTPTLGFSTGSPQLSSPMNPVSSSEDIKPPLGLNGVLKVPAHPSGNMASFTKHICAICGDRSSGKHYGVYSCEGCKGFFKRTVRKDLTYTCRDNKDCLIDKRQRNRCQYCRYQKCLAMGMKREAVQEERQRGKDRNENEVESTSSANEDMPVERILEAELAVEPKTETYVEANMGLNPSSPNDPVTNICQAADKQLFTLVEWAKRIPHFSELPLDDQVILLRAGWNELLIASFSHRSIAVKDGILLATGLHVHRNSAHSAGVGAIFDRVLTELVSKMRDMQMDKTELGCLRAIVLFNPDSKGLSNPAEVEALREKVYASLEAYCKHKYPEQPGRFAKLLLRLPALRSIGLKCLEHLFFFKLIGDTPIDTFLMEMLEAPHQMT

In the data set the target is RARb:RXRa (Homo sapiens, UniProt P10826;P19793 full;full). Nature of the data set: no ligand; PBM; 270 nM : 90 nM RXRa; PBS pH 7.4, 2% milk, 0.02% Triton X-100, 1 mM DTT, BSA, 0.4 mg/ml salmon testes DNA. Conditions: tags: His kept;His cleaved; copies: 1;1; label: surface-attached array probe. An outline of the steps:
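Custom Agilent 4×180K protein-binding microarrays carried double-stranded probes, each with a 34-nt variable region. These regions held direct-repeat seeds, single-nucleotide variants, half-site ablations and random human genomic background sequences. Ligand-free nuclear receptor dimers were incubated on the arrays for 1 h, antibodies against each partner (one per run) detected binding, and scanned fluorescence was regression-normalized. Binding z-scores take the random background probes as reference.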
As to B1, the binding signal was 3.03 PBM z-score against 500 random probes.
For B2 the value was 3.01 PBM z-score against 500 random probes; for B3, 0.43 PBM z-score against 500 random probes.
Consider B4, for which the binding signal was 3.01 PBM z-score against 500 random probes.
In the case of B5, the binding signal is 0.46 PBM z-score against 500 random probes.
Next, B6: 0.47 PBM z-score against 500 random probes; B7: 3.03 PBM z-score against 500 random probes; B8: 3.03 PBM z-score against 500 random probes.
For B9 the value was 0.46 PBM z-score against 500 random probes; for B10, 3.04 PBM z-score against 500 random probes; for B11, 3 PBM z-score against 500 random probes.
For B12, the binding signal was 3.03 PBM z-score against 500 random probes.
As to B13, the binding signal is 3.02 PBM z-score against 500 random probes.
For B14 the value was 3.02 PBM z-score against 500 random probes; for B15, 0.41 PBM z-score against 500 random probes.
For B16, the binding signal was 0.42 PBM z-score against 500 random probes.
As to B17, the binding signal is 3.04 PBM z-score against 500 random probes.
For B18 the value was 3.02 PBM z-score against 500 random probes; for B19, 3 PBM z-score against 500 random probes; for B20, 3.01 PBM z-score against 500 random probes.
As to B21, the binding signal is 0.4 PBM z-score against 500 random probes.
Take B22: the binding signal was 3.02 PBM z-score against 500 random probes.
Take B23: the binding signal was 3.01 PBM z-score against 500 random probes.

The values are drawn from article PMC6555819, “Comprehensive study of nuclear receptor DNA binding provides a revised framework for understanding receptor specificity”.
